Experimental data from US20140045211A1 (University of California, published 2014).

How the values were obtained:
[1] = biological target: T1, CCR1 on HEK293 cells / HEK293 membranes stably expressing CCR1 (UniProt P32246 1-355, limits assumed); assay: SPA competition assay, HEK293 cells/membranes expressing CCR1; competitor (tracer) CCL3-biotin with 125I-streptavidin
T1 construct: whole, on cells; also called chemokine receptor CCR1
T1 sequence (looked up): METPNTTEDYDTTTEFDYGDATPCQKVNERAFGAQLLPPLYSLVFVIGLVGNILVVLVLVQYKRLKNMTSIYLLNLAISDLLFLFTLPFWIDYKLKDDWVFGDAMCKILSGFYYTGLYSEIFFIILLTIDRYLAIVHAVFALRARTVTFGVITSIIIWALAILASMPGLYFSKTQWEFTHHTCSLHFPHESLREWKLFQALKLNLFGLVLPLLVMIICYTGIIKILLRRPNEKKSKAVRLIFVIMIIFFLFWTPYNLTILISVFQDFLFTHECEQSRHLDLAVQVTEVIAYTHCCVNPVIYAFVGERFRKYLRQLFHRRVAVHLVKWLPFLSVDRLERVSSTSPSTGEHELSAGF
Procedure: (§1) Scintillation proximity assay (SPA) binding assays (GE Healthcare, Piscataway, N.J.) were conducted essentially as previously described. HEK293 cells stably expressing CCR1 were used for these assays, and untransfected HEK293 cells were used as a control. Assays were undertaken in a 96-well plate format and each data point was assayed in triplicate on a Microbeta plate counter (Perkin Elmer) for 1 min per well. Each well contained 20,000 cells, 0.2 mg WGA-PVT-SPA beads, increasing concentrations of unlabeled competitor chemokine, and either […] ¹²⁵I-CCL3 or […] ¹²⁵I-Streptavidin +400 pM CCL3-Biotin, in a total volume of 100 μL. IC₅₀ values were obtained by nonlinear regression curve fitting using Prism software (GraphPad, La Jolla, Calif.).
(§2) In order to test the use of ¹²⁵I-streptavidin as a surrogate radiolabel in a chemokine SPA assay, competition assays using membranes containing the chemokine receptor CCR1 were performed. CCL3 was used for these assays because ¹²⁵I-CCL3 is commercially available, allowing for a direct comparison. After immobilization of membranes to SPA beads, either radiolabeled chemokine, or a combination of biotinylated chemokine and ¹²⁵I-labeled streptavidin was added. […] In contrast, no binding of CCL3 or competition with CCL14 was observed when CCR1-expressing membranes were replaced with untransfected HEK293 membranes. […]

[2] = biological target: T1, CCR1 on HEK293 cells / HEK293 membranes …; assay: SPA competition assay, HEK293 cells/membranes expressing CCR1; competitor (tracer) 125I-CCL3
Procedure: as §1, §2

B1: CCL14 (unlabeled; functional form containing residues 9-74) (ligand)
chain: GPYHPSECCFTYTTYKIPRQRIMDYYETNSQCSKPGIVFITKRGHSVCTNPSDKWVQDYIKDMKEN
notes: Whether the entry is already trimmed to 9-74 is so no residue range is applied; Expressed as a His-ubiquitin fusion and cleaved with Usp2-cc to leave the native N-terminus; also called CCL14/HCC-1; HCC-1 (9-74)
Work on B1 yielded an IC50 [1] of 0.9 nM and an IC50 [2] of 2.6 nM.
